T1: mouse pIgR extracellular domain (ECD) (mouse, UniProt O70570 19-645)
T1 construct: Bought from R&D Systems (Cat 2800-PG-050); also called mpIgR ECD
T1 sequence: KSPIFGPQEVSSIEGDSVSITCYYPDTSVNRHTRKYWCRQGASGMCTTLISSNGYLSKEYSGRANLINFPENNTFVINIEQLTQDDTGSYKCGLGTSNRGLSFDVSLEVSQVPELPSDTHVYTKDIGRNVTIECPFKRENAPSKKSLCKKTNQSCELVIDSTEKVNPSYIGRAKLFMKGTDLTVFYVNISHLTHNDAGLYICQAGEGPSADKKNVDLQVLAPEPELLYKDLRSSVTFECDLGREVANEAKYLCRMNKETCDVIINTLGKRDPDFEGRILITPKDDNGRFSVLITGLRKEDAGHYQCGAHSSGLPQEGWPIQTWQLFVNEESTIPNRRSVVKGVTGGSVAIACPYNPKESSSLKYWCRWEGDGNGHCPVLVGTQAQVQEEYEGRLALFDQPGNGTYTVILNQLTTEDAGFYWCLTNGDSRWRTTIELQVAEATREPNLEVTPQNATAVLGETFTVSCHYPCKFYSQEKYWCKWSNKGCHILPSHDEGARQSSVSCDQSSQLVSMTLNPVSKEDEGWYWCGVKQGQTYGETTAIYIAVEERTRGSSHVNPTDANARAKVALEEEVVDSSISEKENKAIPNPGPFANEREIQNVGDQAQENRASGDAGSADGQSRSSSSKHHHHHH

T2: rat pIgR extracellular domain (rat, UniProt P15083 19-643)
T2 construct: extracellular domain
T2 sequence (looked up): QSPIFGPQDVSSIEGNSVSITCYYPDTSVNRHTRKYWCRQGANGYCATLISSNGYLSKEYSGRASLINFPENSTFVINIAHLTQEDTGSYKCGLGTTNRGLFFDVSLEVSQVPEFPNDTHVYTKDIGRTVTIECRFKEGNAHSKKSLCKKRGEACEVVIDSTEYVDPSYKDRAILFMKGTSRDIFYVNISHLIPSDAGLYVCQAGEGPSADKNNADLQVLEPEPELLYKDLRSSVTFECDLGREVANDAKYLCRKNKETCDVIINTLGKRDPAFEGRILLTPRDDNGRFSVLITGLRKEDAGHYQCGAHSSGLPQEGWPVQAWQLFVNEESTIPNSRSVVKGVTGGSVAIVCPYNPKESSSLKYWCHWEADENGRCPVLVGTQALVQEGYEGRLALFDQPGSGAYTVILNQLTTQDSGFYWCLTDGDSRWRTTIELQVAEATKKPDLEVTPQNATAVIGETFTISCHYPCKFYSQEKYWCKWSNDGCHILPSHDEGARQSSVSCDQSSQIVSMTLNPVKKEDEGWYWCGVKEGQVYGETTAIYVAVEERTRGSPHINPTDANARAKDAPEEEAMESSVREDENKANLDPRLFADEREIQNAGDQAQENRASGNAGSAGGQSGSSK

B1: 01F04R3LS VHH Mono-Fc (Fc fusion)
chain: EVQLVESGGGLVQAGGSLRLSCAASGRTFSRYAMGWFRQAPGKEREFVAAIAWSGGAIYYADFVKGQFTISRDNAKNTVDLEMNRLKPEDTAVYYCGSTRDPRVGDKKFYDYWGQGTQVTVSSSPAPELLGGPSVFLFPPKPKDTLMISRTPEVTCVVVDVSHEDPEVKFNWYVDGVEVHNAKTKPREEQYNSTYRVVSVLTVLHQDWLNGKEYKCKVSNKALPAPIEKTISKAKGQPREPQVYTKPPSREEMTKNQVSLSCLVKGFYPSDIAVEWESNGQPENNYKTTVPVLDSDGSFRLASYLTVDKSRWQQGNVFSCSVMHEALHNHYTQKSLSLSPGK
B2: 01H02R3LS VHH Mono-Fc (Fc fusion)
chain: QVQLVESGGGLVQPGGSLRLSCAASGSIFSASVMGWYRQGPGKQREFVARISPGGVTHYADSVKGRFTISKDNAKNTVTLQMNSLKPEDTAVYYCNADRFGFEVYWGQGTLVTVSSSPAPELLGGPSVFLFPPKPKDTLMISRTPEVTCVVVDVSHEDPEVKFNWYVDGVEVHNAKTKPREEQYNSTYRVVSVLTVLHQDWLNGKEYKCKVSNKALPAPIEKTISKAKGQPREPQVYTKPPSREEMTKNQVSLSCLVKGFYPSDIAVEWESNGQPENNYKTTVPVLDSDGSFRLASYLTVDKSRWQQGNVFSCSVMHEALHNHYTQKSLSLSPGK
B3: 03D12R3 VHH Mono-Fc (Fc fusion)
chain: QVQLVESGGGLVQAGGSLRLSCAASGRTFSSYAMGWFRQAPGKEREFAAVITWNGGSTHYADSVKGRFTISRDNAKNTVYLQMNSLKPEDTAVYYCAADPMNSPYWGQGTQVTVSSSPAPELLGGPSVFLFPPKPKDTLMISRTPEVTCVVVDVSHEDPEVKFNWYVDGVEVHNAKTKPREEQYNSTYRVVSVLTVLHQDWLNGKEYKCKVSNKALPAPIEKTISKAKGQPREPQVYTKPPSREEMTKNQVSLSCLVKGFYPSDIAVEWESNGQPENNYKTTVPVLDSDGSFRLASYLTVDKSRWQQGNVFSCSVMHEALHNHYTQKSLSLSPGK
B4: 03G07R3 VHH Mono-Fc (Fc fusion)
chain: EVQLVESGGGLVQAGDSLRLSCAASGRTLSFDTYAMAWFRQAPGKEREFVASIDYNGGSTDYADSVKGRFTVTRDNAKNTVTLRMNSLKPDDTAVYYCASARYYRSGTSFPVNYWGQGTQVTVSSSPAPELLGGPSVFLFPPKPKDTLMISRTPEVTCVVVDVSHEDPEVKFNWYVDGVEVHNAKTKPREEQYNSTYRVVSVLTVLHQDWLNGKEYKCKVSNKALPAPIEKTISKAKGQPREPQVYTKPPSREEMTKNQVSLSCLVKGFYPSDIAVEWESNGQPENNYKTTVPVLDSDGSFRLASYLTVDKSRWQQGNVFSCSVMHEALHNHYTQKSLSLSPGK
B5: 02G06R3 VHH Mono-Fc (Fc fusion)
chain: EVQLVESGGGLVQAGGSLRLSCAASGRTFDSYAMGWFRQAPGKEREFVAAISWTGGSTDYADSVKGRFTISRDNAKNTVYLQMDSLKPEDTAVYYCAAEVVGRDVTTMYRVSGLEYEYDYWGQGTQVTVSSSPAPELLGGPSVFLFPPKPKDTLMISRTPEVTCVVVDVSHEDPEVKFNWYVDGVEVHNAKTKPREEQYNSTYRVVSVLTVLHQDWLNGKEYKCKVSNKALPAPIEKTISKAKGQPREPQVYTKPPSREEMTKNQVSLSCLVKGFYPSDIAVEWESNGQPENNYKTTVPVLDSDGSFRLASYLTVDKSRWQQGNVFSCSVMHEALHNHYTQKSLSLSPGK
B6: 01G02R2LS VHH Mono-Fc (Fc fusion)
chain: QVQLVESGGGLVQAGDSLALSCAGSGDTFSNYAMGWFRQAPGKEREFVADISWYGANIGYADSVKGRFTISRDNAKNMVTLRMNSLKPEDTAVYYCAADRNHWPVKGDYWGQGTQVTVSSSPAPELLGGPSVFLFPPKPKDTLMISRTPEVTCVVVDVSHEDPEVKFNWYVDGVEVHNAKTKPREEQYNSTYRVVSVLTVLHQDWLNGKEYKCKVSNKALPAPIEKTISKAKGQPREPQVYTKPPSREEMTKNQVSLSCLVKGFYPSDIAVEWESNGQPENNYKTTVPVLDSDGSFRLASYLTVDKSRWQQGNVFSCSVMHEALHNHYTQKSLSLSPGK
B7: 01B11R3LS VHH Mono-Fc (Fc fusion)
chain: EVQLVESGGGVVQAEDSLRLSCAAPGLPFSSSRMGWFRQAPGKEREFVAAIGWSGRSTYRYYGDSVKGRFTVSGDNAKNTLDLQMKGLKPEDTAVYYCAADPDYYGDYRTSGAWRYWGQGTQVTVSSSPAPELLGGPSVFLFPPKPKDTLMISRTPEVTCVVVDVSHEDPEVKFNWYVDGVEVHNAKTKPREEQYNSTYRVVSVLTVLHQDWLNGKEYKCKVSNKALPAPIEKTISKAKGQPREPQVYTKPPSREEMTKNQVSLSCLVKGFYPSDIAVEWESNGQPENNYKTTVPVLDSDGSFRLASYLTVDKSRWQQGNVFSCSVMHEALHNHYTQKSLSLSPGK
B8: 01C01R2LS VHH Mono-Fc (Fc fusion)
chain: QVQLVESGGGLQQAGGSLRLSCAASGRTVTVMTVGWFRQAPGKEREFVAAITMYGERTYYADSVKGRFTISRDNAKNTVDLQMNSLKPEDAAVYYCAARTYVSGIYDRFDDYNYWGQGTQVTVSSSPAPELLGGPSVFLFPPKPKDTLMISRTPEVTCVVVDVSHEDPEVKFNWYVDGVEVHNAKTKPREEQYNSTYRVVSVLTVLHQDWLNGKEYKCKVSNKALPAPIEKTISKAKGQPREPQVYTKPPSREEMTKNQVSLSCLVKGFYPSDIAVEWESNGQPENNYKTTVPVLDSDGSFRLASYLTVDKSRWQQGNVFSCSVMHEALHNHYTQKSLSLSPGK
B9: 02D07R3 VHH Mono-Fc (Fc fusion)
chain: EVQLVESGGGLVQPGGQLRLSCAASGSIASIRDMAWYRQAPGKQRELVAIFARGGTTHYADSVKGRFTISRDNAKNTVYLQVNSLEPEDTAAYYCNAEVATMFQPGFRDYWGRGTQVTVSSSPAPELLGGPSVFLFPPKPKDTLMISRTPEVTCVVVDVSHEDPEVKFNWYVDGVEVHNAKTKPREEQYNSTYRVVSVLTVLHQDWLNGKEYKCKVSNKALPAPIEKTISKAKGQPREPQVYTKPPSREEMTKNQVSLSCLVKGFYPSDIAVEWESNGQPENNYKTTVPVLDSDGSFRLASYLTVDKSRWQQGNVFSCSVMHEALHNHYTQKSLSLSPGK
B10: 01E10R2 VHH Mono-Fc (Fc fusion)
chain: EVQLVESGGGLVQAGGSLRLSCAASGRTLSVDRMGWFRQVPGKEREFIAARTWSGSSTYIYYADSVKGRFAISRDRAKNTIDLQMNSLKLEDTGAYYCAADVRGGSYDVRRDEGYAYWGQGTLVTVSSSPAPELLGGPSVFLFPPKPKDTLMISRTPEVTCVVVDVSHEDPEVKFNWYVDGVEVHNAKTKPREEQYNSTYRVVSVLTVLHQDWLNGKEYKCKVSNKALPAPIEKTISKAKGQPREPQVYTKPPSREEMTKNQVSLSCLVKGFYPSDIAVEWESNGQPENNYKTTVPVLDSDGSFRLASYLTVDKSRWQQGNVFSCSVMHEALHNHYTQKSLSLSPGK
B11: 01H04R3 VHH Mono-Fc (Fc fusion)
chain: EVQLVESGGGLVQPGGSLRLSCAASGRTFSSLTMAWFRRAPGKEREFVAAQKWAGATTYTYYGDSVKGRFTISRDNAKDTVYLQMNSLKPVDTAIYYCAADTSSIVGDPRSPNRYDYWGQGTQVTVSSSPAPELLGGPSVFLFPPKPKDTLMISRTPEVTCVVVDVSHEDPEVKFNWYVDGVEVHNAKTKPREEQYNSTYRVVSVLTVLHQDWLNGKEYKCKVSNKALPAPIEKTISKAKGQPREPQVYTKPPSREEMTKNQVSLSCLVKGFYPSDIAVEWESNGQPENNYKTTVPVLDSDGSFRLASYLTVDKSRWQQGNVFSCSVMHEALHNHYTQKSLSLSPGK

These binders were tested against T3, human pIgR extracellular domain (ECD) (human, UniProt P01833 19-638) (assay: SPR, VHH captured by anti-Fc, ECD analyte).
T3 construct: Bought from R&D Systems (Cat 2717-PG-050); also called hpIgR ECD
T3 sequence (P01833 other isoform, or with tags, fused parts or gaps): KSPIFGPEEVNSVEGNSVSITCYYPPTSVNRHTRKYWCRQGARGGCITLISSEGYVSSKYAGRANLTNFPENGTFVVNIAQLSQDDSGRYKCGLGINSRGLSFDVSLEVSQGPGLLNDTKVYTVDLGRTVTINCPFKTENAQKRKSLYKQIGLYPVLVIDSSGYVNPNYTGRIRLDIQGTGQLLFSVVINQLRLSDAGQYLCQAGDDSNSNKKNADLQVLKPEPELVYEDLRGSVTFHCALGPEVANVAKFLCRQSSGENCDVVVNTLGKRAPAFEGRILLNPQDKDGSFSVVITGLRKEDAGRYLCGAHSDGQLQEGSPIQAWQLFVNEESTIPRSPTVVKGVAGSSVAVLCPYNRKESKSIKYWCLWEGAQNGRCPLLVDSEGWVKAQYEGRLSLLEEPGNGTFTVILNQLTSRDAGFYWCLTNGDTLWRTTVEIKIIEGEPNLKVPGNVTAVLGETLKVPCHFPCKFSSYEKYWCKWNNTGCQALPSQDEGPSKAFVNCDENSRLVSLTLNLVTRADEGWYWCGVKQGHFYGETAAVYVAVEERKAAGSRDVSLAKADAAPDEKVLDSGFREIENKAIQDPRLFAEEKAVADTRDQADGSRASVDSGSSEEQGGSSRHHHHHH
Summary of the method: (§1)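 Single-cycle kinetics: ECD analyte from 30 nM, 3-fold series, low to high, with 30 min off-rate monitoring, over VHH captured at 0.5 ug/ml (~200-300 RU). HBSP plus 100 ug/ml BSA at 30 μL/min. Reference cell and buffer blank subtracted; global 1:1 Langmuir fit gave kon, koff, KD.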
B1 gave a Kd of 23.8 nM.
B2 gave a Kd of 3.24 nM.
B3 was tested, and the Kd was 0.606 nM.
B4 showed a Kd of 2.63 nM.

The binders below were run against T1, mouse pIgR extracellular domain (ECD) (assay: SPR, VHH captured by anti-Fc, ECD analyte).
Summary of the method: as §1
B5 was tested, and the Kd was 32.3 nM.
Work on B6 yielded a Kd of 23.3 nM.
B7 showed a Kd of 12.8 nM.
In the case of B8, the Kd is reported as 11.3 nM.
With B9 the Kd was 4.38 nM.
In the case of B10, the Kd is reported as 61.8 nM.
B4 gave a Kd of 5.58 nM.
With B11 the Kd was 101 nM.

What follows are binders tested against T4, cynomolgus monkey pIgR extracellular domain (cynomolgus monkey, UniProt A0A2K5WMU9 19-638) (assay: SPR, VHH captured by anti-Fc, ECD analyte).
T4 construct: extracellular domain
T4 sequence (A0A2K5WMU9 entry or part of it): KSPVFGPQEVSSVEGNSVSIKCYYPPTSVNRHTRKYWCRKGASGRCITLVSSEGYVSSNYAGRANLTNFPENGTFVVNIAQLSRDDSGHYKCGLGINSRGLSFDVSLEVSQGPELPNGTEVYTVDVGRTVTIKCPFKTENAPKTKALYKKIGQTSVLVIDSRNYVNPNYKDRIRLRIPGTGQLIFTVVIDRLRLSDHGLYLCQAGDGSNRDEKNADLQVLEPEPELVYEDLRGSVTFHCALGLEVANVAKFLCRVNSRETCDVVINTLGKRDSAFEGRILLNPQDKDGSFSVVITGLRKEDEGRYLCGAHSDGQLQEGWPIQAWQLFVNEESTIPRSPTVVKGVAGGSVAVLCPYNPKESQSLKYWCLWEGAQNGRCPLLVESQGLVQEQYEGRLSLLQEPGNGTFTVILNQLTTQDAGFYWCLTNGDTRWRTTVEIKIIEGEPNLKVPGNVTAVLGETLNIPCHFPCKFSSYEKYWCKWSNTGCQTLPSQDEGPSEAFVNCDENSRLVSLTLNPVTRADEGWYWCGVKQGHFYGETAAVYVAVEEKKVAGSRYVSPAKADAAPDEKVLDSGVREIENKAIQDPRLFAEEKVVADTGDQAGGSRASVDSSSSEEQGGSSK
Summary of the method: as §1
B1 was tested, and the Kd was 236 nM.
Work on B2 yielded a Kd of 20.6 nM.
Work on B3 yielded a Kd of 0.905 nM.
B4 was tested, and the Kd was 361 nM.

What follows are binders tested against T2, rat pIgR extracellular domain (assay: SPR, VHH captured by anti-Fc, ECD analyte).
Summary of the method: as §1
In the case of B5, the Kd is reported as 73.5 nM.
For B7, the Kd was 19.9 nM.
B9 was tested, and the Kd was 2.37 nM.
In the case of B10, the Kd is reported as 96.9 nM.
B11 was tested, and the Kd was 88.2 nM.
